Data: patent US20050118674A1, “Engineering of Controlled Deamidation Rates in Peptides, Proteins, and Similar Structures” (priority 2003, published 2005)

Experiment: First-order nonenzymatic deamidation of pentapeptides in Tris buffer
Format: physicochemical
Details: pH 7.4, 37.0° C., 0.15 M Tris HCl; Asn pentapeptides
Experimental: One of the discoveries made was that the sequence dependence of deamidation is much richer and covers a wider range than previously thought. In 37° C., pH 7.4, 0.15 M Tris buffer, the combination of XxxAsnYyy and XxxGlnYyy sequences where Xxx and Yyy are any of the naturally occuring amino acids covers a range from less than 1 day to over 15,000 days with the entire range in between available.
It is based on pentapeptide rates measure in 37° C., pH 7.4, 0.15 M Tris buffer. The applicability of a pentapeptide model to sequence dependence was verified in a separate set of experiments. All values listed in this table are experimental except for the four values in boxes, which were estimated from the rest of the data.
It is also based on pentapeptide rates measure in 37° C., pH 7.4, 0.15 M Tris buffer. In this case, the 52 values shown in bold were measured, and the rest of the values were derived from surface fitting.
Deamidation rates are affected by a wide variety of parameters, including, pH, Temperature, Ionic Strength, and Buffer Ions. These rates are measured under pH and Temperature conditions that are applicable to biological systems. The buffer type and concentration were chosen to minimize ion affects to the extent possible given the experimental limitations. Modification of these conditions will change the rates in Tables 1 and 2. As long as the conditions are not taken to extremes (i.e. high temperature, or strongly acidic or basic conditions) the qualitative sequence dependence should remain the same and the rates reported here can be used with necessary adjustments.

| Substance | First-Order Deamidation Halftimes of GlyXxxAsnYyyGly [days] |
| --- | --- |
| GlyTyrAsnTrpGly (GYNWG; printed: GlyTyrAsnTrpGly) | 120 |
| GlyProAsnAspGly (GPNDG; printed: GlyProAsnAspGly) | 48.6 |
| GlyGluAsnHisGly (GENHG; printed: GlyGluAsnHisGly) | 9.0 |
| GlyPheAsnGluGly (GFNEG; printed: GlyPheAsnGluGly) | 62.4 |
| GlyAlaAsnAspGly (GANDG; printed: GlyAlaAsnAspGly) | 31.9 |
| GlyTyrAsnHisGly (GYNHG; printed: GlyTyrAsnHisGly) | 10.2 |
| GlyLysAsnCysGly (GKNCG; printed: GlyLysAsnCysGly) | 49.0 |
| GlyMetAsnPheGly (GMNFG; printed: GlyMetAsnPheGly) | 61.9 |
| GlyMetAsnValGly (GMNVG; printed: GlyMetAsnValGly) | 211 |
| GlyAspAsnLeuGly (GDNLG; printed: GlyAspAsnLeuGly) | 111 |
| GlyHisAsnLysGly (GHNKG; printed: GlyHisAsnLysGly) | 50.2 |
| GlyTrpAsnAmCysGly | 42.9 |
| GlyCysAsnCysGly (GCNCG; printed: GlyCysAsnCysGly) | 46.0 |
| GlyAlaAsnPheGly (GANFG; printed: GlyAlaAsnPheGly) | 65.6 |
| GlyGlyAsnMetGly (GGNMG; printed: GlyGlyAsnMetGly) | 50.4 |
| GlyLeuAsnIleGly (GLNIG; printed: GlyLeuAsnIleGly) | 391 |
| GlyGluAsnAmCysGly | 32.1 |
| GlyArgAsnIleGly (GRNIG; printed: GlyArgAsnIleGly) | 311 |
| GlyTyrAsnPheGly (GYNFG; printed: GlyTyrAsnPheGly) | 58.0 |

Same assay, conditions: pH 7.4, 37.0 ° C., 0.15 M Tris HCl; Gln pentapeptides; 52 values measured, rest derived from surface fitting

| Substance | First-Order Deamidation Halftimes of GlyXxxGlnYyyGly [days] |
| --- | --- |
| GlyPheGlnSerGly (GFQSG; printed: GlyPheGlnSerGly) | 5900 |
| GlyLeuGlnTyrGly (GLQYG; printed: GlyLeuGlnTyrGly) | 12000 |
| GlyGlyGlnIleGly (GGQIG; printed: GlyGlyGlnIleGly) | 6300 |
| GlyArgGlnPheGly (GRQFG; printed: GlyArgGlnPheGly) | 7100 |
| GlyAlaGlnArgGly (GAQRG; printed: GlyAlaGlnArgGly) | 7200 |
| GlySerGlnTyrGly (GSQYG; printed: GlySerGlnTyrGly) | 13000 |
| GlyLeuGlnSerGly (GLQSG; printed: GlyLeuGlnSerGly) | 5800 |
| GlySerGlnArgGly (GSQRG; printed: GlySerGlnArgGly) | 7200 |
| GlyPheGlnMetGly (GFQMG; printed: GlyPheGlnMetGly) | 5100 |
| GlyPheGlnLysGly (GFQKG; printed: GlyPheGlnLysGly) | 6200 |
| GlyLysGlnAlaGly (GKQAG; printed: GlyLysGlnAlaGly) | 4300 |
